Test results from patent publication US11278600B2, “Human alpha-galactosidase variants” (Codexis, Inc., priority 2014, dated 2022).

Key:
Format in all cases: biochemical
[1] = HTP-analysis of yeast culture supernatants, no challenge (MUGal hydrolysis); conditions: activity of the variant/activity of Rd2BB (SEQ ID NO: 10), yeast culture supernatant
Summary of the method: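 GLA variants were expressed in INVSc1 yeast grown in SD-Ura broth with glucose at 30° C., and culture supernatants were collected after 66-84 h. Supernatant was mixed with McIlvaine buffer pH 4.8 and MUGal (2 mM stock) in 50 mM citrate, 200 mM KCl, pH 4.6, incubated at 37° C. for 30-180 minutes, then quenched with sodium carbonate.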

[2] = HTP-analysis of supernatants pretreated with acid (MUGal hydrolysis); conditions: challenge at pH 4.2; activity of the variant/activity of Rd2BB (SEQ ID NO: 10); yeast culture supernatant
Summary of the method: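 Supernatants from INVSc1 yeast secreting GLA variants were challenged at 37° C. for 1-3 h in McIlvaine buffer at pH 3.3-4.3. Residual activity was then measured on 4 mM MUGal substrate stock at pH 4.8 with citrate buffer pH 4.3, over 30-180 min at 37° C. Reactions were quenched with sodium carbonate and read by fluorescence (Ex 355/Em 448 nm).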

[3] = HTP-analysis of supernatants pretreated with base (MUGal hydrolysis); conditions: challenge at pH 7.6; activity of the variant/activity of Rd2BB (SEQ ID NO: 10); yeast culture supernatant
Summary of the method: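 GLA variants were secreted by transformed INVSc1 yeast grown 66-84 h at 30° C. Supernatants were exposed to neutral-to-basic buffers (pH 7.0-9.7) at 37° C for 1-18 h, then assayed with MUGal in acidic citrate/McIlvaine buffer, with fluorescence read after quenching.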

[4] = HTP-analysis of supernatants pretreated with bovine serum (MUGal hydrolysis); conditions: activity of the variant/activity of Rd2BB (SEQ ID NO: 10), yeast culture supernatant
Summary of the method: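 Yeast INVSc1 culture supernatants containing secreted GLA variants were mixed with bovine serum (20:80) and held 1 h at 37° C. Serum-treated samples then reacted with MUGal (4 mM stock) in citrate/McIlvaine buffer (pH 4.3/4.8) for 180 min at 37° C., were quenched with sodium carbonate, and read by fluorescence (Ex 355, Em 448 nm).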

Molecule | Relative Activity of GLA Variants After No Challenge (NC) [1] | Relative Activity of GLA Variants After Challenge at pH 4.2 [2] | Relative Activity of GLA Variants After Challenge at pH 7.6 [3] | Relative Activity of GLA Variants After Challenge with Serum [4]
270 (protein, Synthetic Polypeptide sequence of Variant No. 270 of mature Human GLA) LDNGLARTPTMGWLHWERFMCNLDCQEEPDSCISEKLFMEMAERMVSEGWKDAGYEYLCIDDCWMAPQRDSEGRLQADPQRFPHGIRQLANYVHSKGLKLGIYADVGNKTCAGFPGSFGYYDIDAQTFADWGVDLLKFDGCYYDSLENLADGYKHMSLALNRTGRSIVYSCEWPLYMWPFQKPNYTEIRQYCNHWRNFADIDDSWASIKSILDWTSFNQERIVDVAGPGGWNDPDMLVIGNFGLSWNQQVTQMALWAIMAAPLFMSNDLRHISPQAKALLQDKDVIAINQDPLGKQGYQLRQGDNFEVWERPLSGLAWAVAMINRQEIGGPRSYTIPVASLGKGVACNPGCFITQLLPVKRKLGFYEWTSRLRSHINPTGTVLLQLENTMQMSLKDLL | + (+ = 0.5 to 1.5 relative activity over Rd2BB (SEQ ID NO: 10)) | + (+ = 0.5 to 1.5 relative activity over Rd2BB (SEQ ID NO: 10)) | + (+ = 0.5 to 1.5 relative activity over Rd2BB (SEQ ID NO: 10)) | + (+ = 0.5 to 1.5 relative activity over Rd2BB (SEQ ID NO: 10))
271 (protein, Synthetic Polypeptide sequence of Variant No. 271 of mature Human GLA) LDNGLARTPTMGWLHWERFMCNLDCQEEPDSCISEKLFMEMAERMVSEGWKDAGYEYLCIDDCWMAPQRDSEGRLQADPQRFPHGIRQLANYVHSKGLKLGIYADVGNKTCAGFPGSFGYYDIDAQTFADWGVDLLKFDGCYCDSLENLADGYKHMSLALNRTGRSIVYSCEWPLYMWPFQKPNYTGIRQYCNHWRNFADIDDSWASIKSILDWTSFNQERIVDVAGPGGWNDPDMLVIGNFGLSWNQQVTQMALWAIMAAPLFMSNDLRHISPQAKALLQDKDVIAINQDPLGKQGYQLRQGDNFEVWERPLSGLAWAVAMINRQEIGGPRSYTIPVASLGKGVACNPGCFITQLLPVKRKLGFYEWTSRLRSHINPTGTVLLQLENTMQMSLKDLL | − (− = <0.5 relative activity over Rd2BB (SEQ ID NO: 10)) | + (+ = 0.5 to 1.5 relative activity over Rd2BB (SEQ ID NO: 10)) | + (+ = 0.5 to 1.5 relative activity over Rd2BB (SEQ ID NO: 10)) | + (+ = 0.5 to 1.5 relative activity over Rd2BB (SEQ ID NO: 10))
267 (protein, Synthetic Polypeptide sequence of Variant No. 267 of mature Human GLA) LDNGLARTPTMGWLHWERFMCNLDCQEEPDSCISEKLFMEMAELMVSEGWKDAGYEYLCIDDCWMAPQRDSEGRLQADPQRFPHGIRQLANYVHSKGLKFGIYADVGNKTCAGFPGSFGYYDIDAQTFADWGVDLLKFDGCYCDSLENLADGYKHMSLALNRTGRSIVYSCEWPLYMWPFQKPNYTEIRQYCNHWRNFADIDDSWASIKSILDWTSFNQETIVDVAGPGGWNDPDMLVIGNFGLSWDQQVTQMALWAIMAAPLFMSNDLRHISPQAKALLQDKDVIAINQDPLGKQGYQLRKGDNFEVWERPLSGLAWAVAMINRQEIGGPRSYTIAVASLGDGVACNPACFITQLLPVKRKLGLYEWTSRLKSHINPTGTVLLQLENTMQMSLKDLL | +++ (+++ = >2.5 relative activity over Rd2BB (SEQ ID NO: 10)) | +++ (+++ = >2.5 relative activity over Rd2BB (SEQ ID NO: 10)) | +++ (+++ = >2.5 relative activity over Rd2BB (SEQ ID NO: 10)) | +++ (+++ = >2.5 relative activity over Rd2BB (SEQ ID NO: 10))
268 (protein, Synthetic Polypeptide sequence of Variant No. 268 of mature Human GLA) LDNGLARTPTMGWLHWERFMCNLDCQEEPDSCISEKLFMEMAELMVSEGWKDAGYEYLCIDDCWMAPQRDSEGRLQADPQRFPHGIRQLANYVHSKGLKFGIYADVGNKTCAGFPGSFGYYDIDAQTFADWGVDLLKFDGCYCDSLENLADGYKHMSLALNRTGRSIVYSCEWPLYMWPFQKPNYTEIRQYCNHWRNFADIDDSWASIKSILDWTSFNQERIVDVAGPGGWNDPDMLVIGNFGLSWNQQVTQMALWAIMAAPLFMSNDLRHISPQAKALLQDKDVIAINQDPLGKQGYQLRQGDNFEVWERPLSGLAWAVAMINRQEIGGPRSYTIAVASLGKGVACNPACFITQLLPVKRKLGFYEWTSRLKSHVNPTGTVLLQLENTMQMSLKDLL | + (+ = 0.5 to 1.5 relative activity over Rd2BB (SEQ ID NO: 10)) | + (+ = 0.5 to 1.5 relative activity over Rd2BB (SEQ ID NO: 10)) | + (+ = 0.5 to 1.5 relative activity over Rd2BB (SEQ ID NO: 10)) | + (+ = 0.5 to 1.5 relative activity over Rd2BB (SEQ ID NO: 10))
269 (protein, Synthetic Polypeptide sequence of Variant No. 269 of mature Human GLA) LDNGLARTPTMGWLHWERFMCNLDCQEEPDSCISEKIFMEMAELMVSEGWKDAGYEYLCIDDCWMAPQRDSEGRLQADPQRFPHGIRQLANYVHSKGLKLGIYADVGNKTCAGFPGSFGYYDIDAQTFADWGVDLLKFDGCYCDSLENLADGYKHMSLALNRTGRSIVYSCEWPLYMWPFQKPNYTEIRQYCNHWRNFADIDDSWASIKSILDWTSFNQEKIVDVAGPGGWNDPDMLVIGNFGLSWDQQVTQMALWAIMAAPLFMSNDLRHISPQAKALLQDKDVIAINQDPLGKQGYQLRQGDNFEVWERPLSGLAWAVAIINRQEIGGPRSYTIAVASLGKGVACNPACFITQLLPVKRKLGFYEWTSRLKSHINPTGTVLLQLENTMQMSLKDLL | − (− = <0.5 relative activity over Rd2BB (SEQ ID NO: 10)) | + (+ = 0.5 to 1.5 relative activity over Rd2BB (SEQ ID NO: 10)) | + (+ = 0.5 to 1.5 relative activity over Rd2BB (SEQ ID NO: 10)) | + (+ = 0.5 to 1.5 relative activity over Rd2BB (SEQ ID NO: 10))
272 (protein, Synthetic Polypeptide sequence of Variant No. 272 of mature Human GLA) LDNGLARTPTMGWLHWERFMCNLDCQEEPDSCISEKLFMEMAERMVSEGWKDAGYEYLCIDDCWMAPQRDSEGRLQADPQRFPHGIRQLANYVHSKGLKLGIYADVGNKTCAGFPGSFGYYDIDAQTFADWGVDLLKFDGCYCDSLENLADGYKHMSLALNRTGRSIVYSCEWPLYMWPFQKPNYTEIRQYCNHWRNFADIDDSWASIKSILDWTSFNQERIVDVAGPGGWNDPDMLVIGNFGLSWNQQVTQMALWAIMAAPLFMSNDLRHISPQAKALLQDKDVIAINQDPLGKQGYQLRQGDNFEVWERPLSGLAWAVAMINRQEIGGPRSYTIAVASLGKGVACNPACFITQLLPVKRKLGFYEWTSRLRSHINPTGTVLLQLENTMQMSLKDLL | + (+ = 0.5 to 1.5 relative activity over Rd2BB (SEQ ID NO: 10)) | + (+ = 0.5 to 1.5 relative activity over Rd2BB (SEQ ID NO: 10)) | + (+ = 0.5 to 1.5 relative activity over Rd2BB (SEQ ID NO: 10)) | + (+ = 0.5 to 1.5 relative activity over Rd2BB (SEQ ID NO: 10))
